Test results published in US20220073565A1 (University of Washington, published 2022).
No end group written: not given here.

Experiments:
Bcl2 [1] = molecular target: T1, Bcl2 (UniProt P10415 1-207, limits assumed, biotinylated); assay: bio-layer interferometry (Octet), Bcl2 immobilised, switch with nine residue toehold
T1 construct: Loaded on streptavidin biosensors; also called biotinylated Bcl2

mSin3A-PAH2 domain = molecular target: T2, mSin3A-PAH2 domain (UniProt Q60520 300-383, biotin); assay: bio-layer interferometry, Biotin-mSin3A-PAH2 on streptavidin tips
T2 construct: domain: PAH2; 0.1 µg immobilised on streptavidin biosensor tips; also called Biotin-mSin3A-PAH2; PAH2 domain of the mSin3A transcriptional repressor
T2 sequence (looked up): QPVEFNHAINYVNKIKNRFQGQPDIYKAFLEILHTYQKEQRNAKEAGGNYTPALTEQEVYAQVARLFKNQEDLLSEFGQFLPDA
From the text: FIG. 12a-d: Designed Mad1-SID LOCKR switches for key-dependent transcriptional repression. FIG. 12a. Crystal structure of the interaction between Mad1-SID domain (white) and the PAH2 domain of the mSin3A transcriptional repressor (black) (PDB ID: 1E91). Caging of the Mad1-SID domain should enable key-dependent recruitment of the transcriptional repressor mSin3A enabling precise epigenetic regulation. FIG. 12b. Designed Mad1-LOCKR switches, with Cage component encoding the Mad1-SID sequence at different positions (dark gray). FIG. 12c. SDS-PAGE gel showing successfully purified 1fix302Mad1 (1) , 1fix_309_Mad1 (2) and MBP_Mad1 (3). FIG. 12d. Biolayer interferometry analysis of key-activated binding of the Mad1-LOCKR switches to the purified rnSin3A-PAH2 domain. MBP-Mad1 is a positive control for mSin3a-PAH2 binding. […] Kinetic assays were performed by immobilizing 0.1μg of Biotin-mSin3A-PAH2 protein on Streptavidin biosensor tips (ForteBio). Protein cages were tested at 50 nM in presence or absence of 500 nM Keyₐ.

Bcl2 [2] = molecular target: T1, Bcl2; assay: bio-layer interferometry, Bcl2 immobilised, 250 nM BimLOCKR with and without key
Experimental: The range of key concentrations over which BimLOCKR is activated can be controlled by tuning KCK by varying the length of the key since the interaction energy is roughly proportional to the total surface area of interacting residues. […] Truncating an additional five residues completely negates key activation, indicating the equilibria are very sensitive to small changes in free energy as expected from our model (FIG. 2d). […] Bio-layer interferometry experiments were performed with target immobilized assayed against the switch with or without key in solution, as well as with key immobilized and assayed against the switch alone or with target in solution. […] This fit has an RMSE (root-mean-square-error) of 0.072 nm to the observed BLI data.
BLI measurements were made on an Octet® RED96 System (ForteBio) with streptavidin (SA) coated biosensors and all analysis was performed within ForteBio Data Analysis Software version 9.0.0.10. Assays were performed with protein diluted into HBS-EP+ Buffer from GE (10 mM HEPES, 150 mM NaCl, 3 mM EDTA, 0.05% v/v Surfactant P20, 0.5% non-fat dry milk, pH7.4 at room temperature). Biotinylated Bcl2 was loaded onto the SA tips to a threshold of 0.5 nm programmed into the machine's protocol.

BclB = molecular target: T3, BclB (UniProt Q9HD36 11-178, limits assumed); assay: global fit of the thermodynamic model to bio-layer interferometry data (target or key immobilised)
T3 construct: also called Bcl2 homolog BclB
T3 sequence (looked up): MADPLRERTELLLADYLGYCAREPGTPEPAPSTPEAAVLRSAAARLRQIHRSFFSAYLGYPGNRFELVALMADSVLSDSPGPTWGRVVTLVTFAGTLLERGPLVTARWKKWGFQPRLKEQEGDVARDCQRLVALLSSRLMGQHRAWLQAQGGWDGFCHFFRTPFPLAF

Bcl2 [3] = molecular target: T1, Bcl2; assay: as above
YFP-degronSwitcha = molecular target: T4, YFP-degronSwitcha; assay: cell-based or functional assay
T4 sequence: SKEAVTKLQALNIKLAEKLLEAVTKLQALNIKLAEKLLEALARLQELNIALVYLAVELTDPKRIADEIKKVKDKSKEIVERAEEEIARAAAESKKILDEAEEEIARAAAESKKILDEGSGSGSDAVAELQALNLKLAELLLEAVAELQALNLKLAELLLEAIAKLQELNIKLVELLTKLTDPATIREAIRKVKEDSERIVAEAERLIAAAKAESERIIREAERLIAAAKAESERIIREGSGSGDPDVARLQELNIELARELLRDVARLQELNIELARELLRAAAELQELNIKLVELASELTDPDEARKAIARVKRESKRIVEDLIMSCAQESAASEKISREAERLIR

[4] = molecular target: dCas9-VP64-RFP-degronSwitcha; assay: cell-based or functional assay
SynTF-RFP-degronSwitcha = assay: cell-based or functional assay

T1 sequence (P10415 1-207 limits assumed): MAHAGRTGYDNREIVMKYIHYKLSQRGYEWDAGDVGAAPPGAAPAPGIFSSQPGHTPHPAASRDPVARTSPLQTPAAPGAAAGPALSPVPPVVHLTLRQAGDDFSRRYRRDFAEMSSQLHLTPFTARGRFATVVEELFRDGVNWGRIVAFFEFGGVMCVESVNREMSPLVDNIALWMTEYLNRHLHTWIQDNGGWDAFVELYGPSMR

B1: BimLOCKRb (nine residue toehold on the latch) (designed binder)
chain: MGSSHHHHHHSSGLVPRGSHMSHAAVIKLSDLNIRLLDKLLQAVIKLTELNAELNRKLIEALQRLFDLNVALVHLAAELTDPKRIADEIKKVKDKSKEIVERAEEEIARAAAESKKILDEAEEEIARAAAESKKILDEGSGSGSDAVAELQALNLKLAELLLEAVAELQALNLKLAELLLEAIAKLQELNIKLVELLTKLTDPATIREAIRKVKEDSERIVAEAERLIAAAKAESERIIREAERLIAAAKAESERIIREGSGSNDPQVAQNQETFIELARDALRLVAENQEAFIEVARLTLRAAALAQEVAIKAVEAASEGGSGSGNEIWIAQELRRIGDEFNAYYAEHKEIHDKLRKKNKKAREDLKKKADE
notes: Entry is printed with full latch and optional His tag; tested with a nine residue toehold (latch truncated by nine residues)
fold activation of binding by the cognate key (with key against without key) (Bcl2 [1]): 22 fold

B2: 1fix_302_Mad1 (designed binder)
chain: MGSHHHHHHGSGSENLYFQGSKEAAKKLQDLNIELARKLLEASTKLQRLNIRLAEALLEAIARLQELNLELVYLAVELTDPKRIRDEIKEVKDKSKEIIRRAEKEIDDAAKESKKILEEARKAIRDAAEESRKILEEGSGSGSDALDELQKLNLELAKLLLKAIAETQDLNLRAAKAFLEAAAKLQELNIRAVELLVKLTDPATIRRALEHAKRRSKEIIDEAERAIRAAKRESERIIEEARRLIEKAKEESERIIREGSGSGDPDIKKLQDLNIELARELLRAHAQLQRLNLELLRELLRALAQLQELNLDLLRLASELTNIQMLLEAADYLERESKRIVEDAERLIREAAAASEKISREAERSIREAAAASEKISRE
notes: Optional His-TEV tag printed in parentheses
binding result (mSin3A-PAH2 domain): no binding

B3: BimLOCKR (18-residue extension with a 9 residue toehold) (designed binder)
chain: MGSSHHHHHHSSGLVPRGSHMSKEAVTKLQALNIKLAEKLLEAVTKLQALNIKLAEKLLEALARLQELNIALVYLAVELTDPKRIADEIKKVKDKSKEIVERAEEEIARAAAESKKILDEAEEEIARAAAESKKILDEGSGSGSDAVAELQALNLKLAELLLEAVAELQALNLKLAELLLEAIAKLQELNIKLVELLTKLTDPATIREAIRKVKEDSERIVAEAERLIAAAKAESERIIREAERLIAAAKAESERIIREGSGSGDPDVARLQELNIELARELLRDVARLQELNIELARELLRAAAELQELNIKLVELASELTDEIWIAQELRRIGDEFNAYYADAERLIREAAAASEKISREAERLIREAA
notes: the tested form has the latch truncated by nine residues at the C-terminus (toehold); also called BimLOCKRa
fold activation of binding by the key (with key against without key) (Bcl2 [2]): ~40 fold
Kd (BclB): 32 nM
Kd (Bcl2 [3]): 28 nM

B4: Keya-BFP (designed binder, not shown: large carriers)
chain: EARKAIARVKRESKRIVEDAERLIREAAAASEKISREAERLIREAAAASEKISRE
modifications: also: C-terminal fusion to BFP (mTagBFP2), linker not given here
reduction of YFP fluorescence (flow cytometry, S. cerevisiae) (YFP-degronSwitcha): < 73%
reduction of RFP fluorescence upon induction of Key at 31.25 nM E2 [4]: 78%
reduction of pTet7x-YFP reporter fluorescence upon induction of Key at 31.25 nM E2 [4]: 41%

B5: Keya-BFP-NLS (designed binder, not shown: large carriers)
chain: EARKAIARVKRESKRIVEDAERLIREAAAASEKISREAERLIREAAAASEKISRE
reduction of RFP fluorescence at 31.25 nM E2, maximal Key induction (SynTF-RFP-degronSwitcha): 61%
reduction of pSynTF-YFP reporter fluorescence at 31.25 nM E2, maximal Key induction (SynTF-RFP-degronSwitcha): 82%

B6: BimLOCKRc (nine residue toehold on the latch) (designed binder)
chain: MGSSHHHHHHSSGLVPRGSHMSLEAVLKLAELNLKLSDKLAEAVQKLAALLNKLLEKLSEALQRLFELNVALVTLAIELTDPKRIADEIKKVKDKSKEIVERAEEEIARAAAESKKILDEAEEEIARAAAESKKILDEGSGSGSDAVAELQALNLKLAELLLEAVAELQALNLKLAELLLEAIAKLQELNIKLVELLTKLTDPATIREAIRKVKEDSERIVAEAERLIAAAKAESERIIREAERLIAAAKAESERIIREGSGSNDPLVARLQELLIEHARELLRLVATSQEIFIELARAFLANAAQLQEAAIKAVEAASENGSGEIWIAQELRRIGDEFNAYYAQNQKLLKDHKRAQEKLNRELEELKKKHKK
notes: as for B1
fold activation of binding by the cognate key (with key against without key) (Bcl2 [1]): 8 fold
